Drawing on patent US20110262748A1, this text covers binding capacity for 1 substance.

Assay [1] concerns the target human IgG antibody (manufactured by Lampire Biological Laboratories) (human). Nature of the assay: column breakthrough binding capacity of human IgG, protein A on crosslinked agarose, 150 cm/hr.
For assay [2] the target is unchanged. Nature of the assay: column breakthrough binding capacity of human IgG, protein A on crosslinked agarose, 500 cm/hr.

As to “protein A immobilized on crosslinked agarose (MabSelect Xtra, GE Healthcare Biosciences) (from UniProt P38507 37-327)”, the binding capacity was 25 mg/mL in assay [1] and 12 mg/mL in assay [2].
